This data set deals with the molecule itself. Briefly: non-reducing SDS-PAGE; MDFs treated with TSZ, lysed in DISC lysis buffer; loading dye without beta-mercaptoethanol, immunoblot for MLKL; intermolecular disulfide bonds stabilise the trimer.

B1: mixed lineage kinase domain-like (MLKL) pseudokinase, mouse, wild type, endogenous (natural protein, mouse (endogenous in MDFs), UniProt Q9D2Y4-2 1-464, looked up)
chain: MDKLGQIIKLGQLIYEQCEKMKYCRKQCQRLGNRVHGLLQPLQRLQAQGKKNLPDDITAALGRFDEVLKEANQQIEKFSKKSHIWKFVSVGNDKILFHEVNEKLRDVWEELLLLLQVYHWNTVSDVSQPASWQQEDRQDAEEDGNENMKVILMQLQISVEEINKTLKQCSLKPTQEIPQDLQIKEIPKEHLGPPWTKLKTSKMSTIYRGEYHRSPVTIKVFNNPQAESVGIVRFTFNDEIKTMKKFDSPNILRIFGICIDQTVKPPEFSIVMEYCELGTLRELLDREKDLTMSVRSLLVLRAARGLYRLHHSETLHRNISSSSFLVAGGYQVKLAGFELSKTQNSISRTAKSTKAERSSSTIYVSPERLKNPFCLYDIKAEIYSFGIVLWEIATGKIPFEGCDSKKIRELVAEDKKQEPVGQDCPELLREIINECRAHEPSQRPSVDGILERLSAVEESTDKKV
modifications: after TSZ: phosphorylated at S345; K63-linked ubiquitin chains, Ub acceptor lysines K51, K77, K172 and K219
notes: MLKL, mouse, endogenous in MDFs; Oligomers are seen only in cells treated with TNF/SM-164/z-VAD-FMK (TSZ); also called mMLKL; MLKL^WT; source: endogenous, mouse dermal fibroblasts (MDFs), in lysate or digitonin membrane fraction, after TSZ treatment
By stoichiometry N is commonly meant the number of molecules, sites or subunits per partner or assembly. Turning to B1, the “stoichiometry N” value is 3.

(Values after PMC8184782 (Nature Communications, 2021).)
